These are literature values, as cited in publication PMC4927088.

As usually defined, the pKd is −log10 of the Kd, conventionally taken in molar units.

pKd: −log10 of the molar value.

The target of the series is LPL (UniProt P11151).
Chain of UniProt P11151 (P11151 29-478): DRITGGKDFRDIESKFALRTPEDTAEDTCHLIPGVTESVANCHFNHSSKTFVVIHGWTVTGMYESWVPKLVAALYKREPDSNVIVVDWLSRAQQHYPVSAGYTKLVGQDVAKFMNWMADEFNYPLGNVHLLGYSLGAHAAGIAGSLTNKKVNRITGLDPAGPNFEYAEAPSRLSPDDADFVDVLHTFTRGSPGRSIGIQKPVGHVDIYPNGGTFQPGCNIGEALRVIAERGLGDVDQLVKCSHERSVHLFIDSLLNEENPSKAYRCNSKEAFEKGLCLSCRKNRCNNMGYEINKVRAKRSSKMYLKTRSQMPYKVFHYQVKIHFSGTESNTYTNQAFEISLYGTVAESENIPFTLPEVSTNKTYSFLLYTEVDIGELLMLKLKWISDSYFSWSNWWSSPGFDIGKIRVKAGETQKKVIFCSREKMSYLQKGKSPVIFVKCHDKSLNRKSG

Turning to GPIHBP1 (from UniProt Q8IV16), the negative-log Kd (pKd) was 7.60.
